Among the targets are HLA-A*03:01; HLA-A*11:01; HLA-A*31:01; HLA-A*33:01; HLA-A*68:01.
What all share (assay): IEDB peptide-MHC binding, purified MHC/competitive/radioactivity; filed as Kd, often an IC50 or EC50 that approximates it; ≥ and ≤ were set here for values at or beyond the usual limits of such assays
[1] abbreviates: source organism: Vaccinia virus WR.
Setting [2] is: source organism: SARS coronavirus Tor2.
The mark [3] stands for this setting: source organism: Dengue virus 2 Jamaica/1409/1983.
[4] abbreviates: source organism: Dengue virus 3 Martinique/1243/1999.
Setting [5] is: source organism: Dengue virus 1 Brazil/97-11/1997.
[6] abbreviates: source organism: Lassa virus Josiah.

Where only a bound is given, the exact number is not on record here.

Data on 29 sequences can be found in the Immune Epitope Database (IEDB).

For orientation: Kd means the free concentration of one partner at which half of the binding sites on the other are occupied at equilibrium, for simple one-to-one binding.

For HTTAFFNTCK, the dissociation constant (Kd) with HLA-A*03:01 (setting [1]) came to 183 nM; in the assay with HLA-A*11:01 (setting [1]), 1.46 nM; with HLA-A*31:01 (setting [1]) it was 113 nM; in the assay with HLA-A*33:01 (setting [1]), 14000 nM; with HLA-A*68:01 (setting [1]), 2.13 nM.

With SLVENNFFTK, the Kd in the assay with HLA-A*03:01 (setting [1]) came out at 229 nM; with HLA-A*11:01 (setting [1]) it was 9.71 nM; with HLA-A*31:01 (setting [1]) it was 388 nM; with HLA-A*33:01 (setting [1]) it was 704 nM; in the assay with HLA-A*68:01 (setting [1]) it was 119 nM.

With KSAGFPFNK, the Kd with HLA-A*03:01 (setting [2]) was 8.65 nM; with HLA-A*11:01 (setting [2]) it was 3.88 nM; in the assay with HLA-A*31:01 (setting [2]), 31.8 nM; in the assay with HLA-A*33:01 (setting [2]), 4890 nM; with HLA-A*68:01 (setting [2]) it was 69.5 nM.

In the case of MVSVSDFRDY, the Kd with HLA-A*03:01 (setting [1]) was no less than 70100 nM; with HLA-A*11:01 (setting [1]) it was 17700 nM; with HLA-A*31:01 (setting [1]), no less than 70000 nM; with HLA-A*33:01 (setting [1]), no less than 70000 nM; with HLA-A*68:01 (setting [1]), 3960 nM.

With GTSWFITQR, the dissociation constant Kd in the assay with HLA-A*03:01 (setting [2]) was 318 nM; with HLA-A*11:01 (setting [2]), 6.53 nM; with HLA-A*31:01 (setting [2]), 8.28 nM; in the assay with HLA-A*33:01 (setting [2]) it was 1240 nM; with HLA-A*68:01 (setting [2]), 13 nM.

In the case of IFSPENKAFK, the Kd with HLA-A*03:01 (setting [1]) stood at 96.4 nM; in the assay with HLA-A*11:01 (setting [1]), 756 nM; with HLA-A*31:01 (setting [1]), 699 nM; with HLA-A*33:01 (setting [1]) it was 2470 nM; with HLA-A*68:01 (setting [1]), 184 nM.

Take FFLIVLLIPE: in the assay with HLA-A*33:01 (setting [3]), the equilibrium dissociation constant (Kd) is 327 nM.

Consider TIREFPRKDK, for which the Kd in the assay with HLA-A*03:01 (setting [1]) is 13100 nM; with HLA-A*11:01 (setting [1]) it was 16200 nM; with HLA-A*31:01 (setting [1]), 295 nM; with HLA-A*33:01 (setting [1]), no less than 40900 nM; in the assay with HLA-A*68:01 (setting [1]) it was 7280 nM.

Regarding KFISDNKKEY, the Kd with HLA-A*03:01 (setting [1]) is no less than 70100 nM; in the assay with HLA-A*11:01 (setting [1]) it was no less than 69800 nM; with HLA-A*31:01 (setting [1]), 427 nM; in the assay with HLA-A*33:01 (setting [1]) it was no less than 70000 nM; in the assay with HLA-A*68:01 (setting [1]) it was no less than 40700 nM.

On to MLNILNRRR, for which the Kd with HLA-A*31:01 (setting [3]) came to 8.37 nM.

As to RNKRPRLCTR, the Kd in the assay with HLA-A*31:01 (source organism: Dengue virus 3 Sri Lanka/1266/2000) worked out at 51.9 nM.

Take TLAILTALR: the dissociation constant (Kd) was determined as 3670 nM with HLA-A*03:01 (setting [2]); 4460 nM in the assay with HLA-A*11:01 (setting [2]); 326 nM in the assay with HLA-A*31:01 (setting [2]); 833 nM in the assay with HLA-A*33:01 (setting [2]); 117 nM with HLA-A*68:01 (setting [2]).

In the case of LLSGHNLAK, the Kd was 4.61 nM in the assay with HLA-A*03:01 (setting [2]); 90.9 nM in the assay with HLA-A*11:01 (setting [2]); 6690 nM with HLA-A*31:01 (setting [2]); no less than 77700 nM in the assay with HLA-A*33:01 (setting [2]); 6580 nM with HLA-A*68:01 (setting [2]).

Take PIIVAGFSGK: the Kd in the assay with HLA-A*03:01 (setting [1]) is 681 nM; with HLA-A*11:01 (setting [1]) it was 761 nM; with HLA-A*31:01 (setting [1]), no less than 70000 nM; in the assay with HLA-A*33:01 (setting [1]), no less than 45600 nM; with HLA-A*68:01 (setting [1]), 3760 nM.

Turning to RVIDLGCGR, the Kd in the assay with HLA-A*31:01 (setting [4]) was determined as 1.21 nM.

GIALGLMALK: the equilibrium dissociation constant (Kd) in the assay with HLA-A*03:01 (setting [4]) worked out at 219 nM.

Regarding LMSAAIKDSK, in the assay with HLA-A*03:01 (setting [5]), the Kd was 66.7 nM.

Consider ISDNKKEYK, for which the equilibrium dissociation constant (Kd) stood at 1990 nM with HLA-A*03:01 (setting [1]); 359 nM with HLA-A*11:01 (setting [1]); 1820 nM with HLA-A*31:01 (setting [1]); 10500 nM in the assay with HLA-A*33:01 (setting [1]); 3420 nM with HLA-A*68:01 (setting [1]).

On to CVTQVLMMR, for which the equilibrium dissociation constant (Kd) came to 350 nM with HLA-A*33:01 (setting [3]) and 100 nM with HLA-A*68:01 (setting [3]).

MISYGGGWR: the equilibrium dissociation constant (Kd) with HLA-A*68:01 (source organism: Dengue virus 4 Philippines/H241/1956) amounted to 111 nM.

Regarding AAISKLGINY, the dissociation constant (Kd) with HLA-A*03:01 (setting [1]) amounted to 320 nM; in the assay with HLA-A*11:01 (setting [1]), 357 nM; with HLA-A*31:01 (setting [1]), 1400 nM; with HLA-A*33:01 (setting [1]) it was 1210 nM; in the assay with HLA-A*68:01 (setting [1]), 279 nM.

For the sequence VQIGEYTFEK, the Kd with HLA-A*03:01 (setting [2]) came to 221 nM; with HLA-A*11:01 (setting [2]), 22 nM; with HLA-A*31:01 (setting [2]), 1660 nM; with HLA-A*33:01 (setting [2]), 11200 nM; with HLA-A*68:01 (setting [2]), 350 nM.

As to WYFWQKKKQR, the dissociation constant (Kd) with HLA-A*33:01 (setting [5]) was 8.19 nM.

As for RTRDIYISRR, the Kd in the assay with HLA-A*03:01 (setting [6]) came to 393 nM; with HLA-A*11:01 (setting [6]) it was 4290 nM; with HLA-A*31:01 (setting [6]), 28.1 nM; with HLA-A*33:01 (setting [6]) it was 725 nM; in the assay with HLA-A*68:01 (setting [6]), 1700 nM.

For the sequence VQSKMSDVK, the dissociation constant (Kd) with HLA-A*03:01 (setting [2]) was 4160 nM; in the assay with HLA-A*11:01 (setting [2]), 198 nM; in the assay with HLA-A*31:01 (setting [2]) it was 7070 nM; with HLA-A*33:01 (setting [2]), no less than 25000 nM; in the assay with HLA-A*68:01 (setting [2]), no less than 53500 nM.

As for KIMEIVSHLR, the Kd in the assay with HLA-A*03:01 (setting [1]) was 73 nM; in the assay with HLA-A*11:01 (setting [1]) it was 3.61 nM; in the assay with HLA-A*31:01 (setting [1]) it was 0.559 nM; with HLA-A*33:01 (setting [1]), 63.5 nM; with HLA-A*68:01 (setting [1]) it was 2.42 nM.

Regarding SFLRKIGDK, the Kd was 7600 nM with HLA-A*03:01 (setting [1]); 3930 nM with HLA-A*11:01 (setting [1]); 247 nM with HLA-A*31:01 (setting [1]); no less than 26200 nM in the assay with HLA-A*33:01 (setting [1]); no less than 35000 nM with HLA-A*68:01 (setting [1]).

On to YLRLYIILAR, for which the dissociation constant Kd in the assay with HLA-A*03:01 (setting [1]) came to 160 nM; with HLA-A*11:01 (setting [1]), 1470 nM; in the assay with HLA-A*31:01 (setting [1]) it was 12.7 nM; with HLA-A*33:01 (setting [1]), 117 nM; with HLA-A*68:01 (setting [1]), 14.8 nM.

As for QTPTKLMNK, the Kd in the assay with HLA-A*03:01 (setting [1]) is 210 nM; in the assay with HLA-A*11:01 (setting [1]) it was 306 nM; with HLA-A*31:01 (setting [1]) it was no less than 22700 nM; with HLA-A*33:01 (setting [1]), no less than 77700 nM; with HLA-A*68:01 (setting [1]), 178 nM.
